For orientation: Vmax means the rate approached at saturating substrate. A word on the Km: it is the concentration of substrate that gives half-maximal velocity.

Data set [1] has as its system CN(C(=S)Cn1nc2c(c1C(F)(F)F)CCC2)c1ccccc1. Particulars: Homo sapiens; dose 10.0 nM.
The test system is the same in data set [2]. The note with it: Homo sapiens; dose 2.5 nM.
Description: Inhibition of human DNA polymerase theta assessed as substrate Km using dNTP as substrate at 2.5 nM
Data set [3] shares this test system. Particulars: Homo sapiens; dose 2.5 nM. This is another data set of the same source.
Description: Inhibition of human DNA polymerase theta assessed as substrate Vmax using dNTP as substrate at 2.5 nM
Data set [4] shares this test system. Particulars: Homo sapiens; dose 40.0 nM.
Data set [5] shares this test system. The note with it: Homo sapiens; dose 30.0 nM.
Description: Inhibition of human DNA polymerase theta assessed as substrate Km using dNTP as substrate at 30 nM
For data set [6] the test system is unchanged. Particulars: Homo sapiens; dose 5.0 nM.
Data set [7] has the same test system. Particulars: Homo sapiens; dose 40.0 nM. The source holds these as a separate data set.
Data set [8] shares this test system. Particulars: Homo sapiens; dose 30.0 nM. This is another data set of the same source.
Description: Inhibition of human DNA polymerase theta assessed as substrate Vmax using dNTP as substrate at 30 nM
Data set [9] has the same test system. The note with it: Homo sapiens; dose 5.0 nM. The source holds these as a separate data set.
Description: Inhibition of human DNA polymerase theta assessed as substrate Km using dNTP as substrate at 5 nM
For data set [10] the test system is unchanged. The note with it: Homo sapiens; dose 10.0 nM. This is another data set of the same source.
The test system is the same in data set [11]. Particulars: Homo sapiens; dose 20.0 nM.
For data set [12] the test system is unchanged. Particulars: Homo sapiens; dose 20.0 nM. The source holds these as a separate data set.

Take “DNA polymerase theta (Homo sapiens), O75417”: the Vmax came out at 25.5 µM/min in [1]; 51.2 µM/min in data set [3]; 6.45 µM/min in data set [4]; 51.3 µM/min in [6]; 15.2 µM/min in [8]; 21.8 µM/min in data set [11]. The Michaelis constant (Km) in [2] was 25.2 µM; in [5] it was 112 µM; in data set [7], 39.5 µM; in data set [9], 36.6 µM; in data set [10], 24 µM; in data set [12], 57 µM.

The values above are taken from ChEMBL document CHEMBL5108047.
